According to publication PMC9963953, “Structures of MPND Reveal the Molecular Recognition of Nucleosomes”:

Target: T1, MPND 54-163 (RAMA domain, crystal) (Mus musculus, UniProt Q3TV65 54-163)
T1 sequence: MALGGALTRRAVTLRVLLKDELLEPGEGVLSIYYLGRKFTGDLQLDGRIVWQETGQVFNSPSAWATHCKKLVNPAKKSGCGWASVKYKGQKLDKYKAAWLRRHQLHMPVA
Test: X-ray crystallography (2.47 A); EMSA: 20 mM HEPES pH 7.2, 100 mM NaCl, 2 mM DTT, 0.1% NP-40, 20 uM protein, 5 uM DNA, on ice; MST: 20 mM HEPES pH 7.2, 100 mM NaCl, 0.1% NP-40, 22 C; pull-down: 20 mM HEPES pH 7.2, 0.15 M NaCl, 1 mM DTT, 4 C
Settings: protein: recombinant; tags: tag removed with TEV; 18 bp, 5' overhangs 1 nt

B1: crystallization dsDNA (dsDNA)
DNA 1: CAGCAACAGAAGAGGATCT
DNA 2: GAGATCCTCTTCTGTTGCT
Does B1 bind?
Result: binds
